Measurements: the DeepSol protein solubility set

test: soluble on expression in E. coli; label from the status in PepcDB or PDB records

Sequence | soluble on expression in E. coli
MGSLGPKVFKLDQLPGTIGKKAAKGASVKFSESSTQAVIKATYLQVFGRDVYEGQRLKVQEIKLENGEISVRDFVRALAKSDLFRKLYWTPFYVCKAIEYIHRRLLGRPTYGRQENNKYFDIASKKGLYAVVDAILDSLEYTETFGEDTVPYERYLEHHHHHH | soluble
MSRQTEIVRRMVSAFNTGRTDDVDEYIHPDYLNPATLEHGIHTGPKAFAQLVGWVRATFSEEARLEEVRIEERGPWVKAYLVLYGRHVGRLVGMPPTDRRFSGEQVHLMRIVDGKIRDHRDWPDFQGTLRQLGDPWPDDEGWRP | soluble
MGSDKIHHHHHHMMAYLVFLGPPGAGKGTYAKRLQEITGIPHISTGDIFRDIVKKENDELGKKIKEIMERGELVPDELVNEVVKRRLSEKDCERGFILDGYPRTVAQAEFLDGFLKTQNKELTAAVLFEVPEEVVVQRLTARRICPKCGRIYNLISLPPKEDELCDDCKVKLVQREDDKEETVRHRYKVYLEKTQPVIDYYDKKGILKRVDGTIGIDNVIAEVLKIIGWSDK | not soluble
MGLKPCDYPDIKHGGLYHENMRRPYFPVAVGKYYSYYCDEHFETPSGSYWDHIHCTQDGWSPAVPCLRKCYFPYLENGYNQNHGRKFVQGKSIDVACHPGYALPKAQTTVTCMENGWSPTPRCIRVKTCSKSSIDIENGFISESQYTYALKEKAKYQCKLGYVTADGETSGSITCGKDGWSAQPTCI | soluble
MIKMIDQYQAFTQSPIGKFVVKNLGLPSPVVLDRFESGQPVIKGAVLMGAAPSSSLTSGIAQVLSNIHADSYAGNNAEIQQAAAQVGLNLRAFNSGDKESKFKAVVFDASGIQNSEQLDELYKFFNPIVRQIESSGRVIVLGTSPESAKTVKQAIAQRALEGFIKSVGKEFKKGITAQVVYVDEGAVNNIESTLRFLLSPRSAYVSGQVIRVSKAEVVQVDWDKPLAGKTALVTGASRGIGEAIAHVLARDGAHVICLDVPQQQVDLDRVASEIGGSALGLDITAADAGEKIKAAAAKQGGLDIIVHNAGITRDKTLANMKSELWDLVININLSAAERINDYLLANDGLNTNGRIVCVSSISGIAGNLGQTNYAVSKAGVIGLVKFTAPILKNGITINAVAPGFIETQMTAAIPFAIREAGRRMNSMNQGGLPVDVAETISWFAATGSTGINGNVVRVCGQSLLGALEHHHHHH | soluble
MSINGISGASPLVALQGPSASQRPEPVSSTDRAQAPAFSERLGSALEGLAKSQTEAAEKASAFERGEGGNLAEVMVSQQVSSLGFQLALNVRNKALGAYRDIMNMPV | not soluble
MGSDKIHHHHHHCQNHVETMSITNNDAYLLQQTALSSSLGYDIVESLTVEVGPRLAGSPKDIIAVNWAMDKLTHLGFDRVYKEPVQVPIWERGEAKAKITFPVEQPLVITALGGSVATPTTGIQAKIIRFDSLEALKQANPEDVKGRIAFIDQKTERHITGEGYGKSVGGRSKGAVAAAEKGAVAIIIRSIGTDHDRMAHTGVMRYQDGVPKIPAAAMSNPDADLVTAMLRRDPNAILELQMSPKNSGFNTSYNVIAEVTGSSKPNEIVLIGAHLDSWDEGTGAIDDGAGVAIVTAAAKHIQDLPIKPARTVRVVLYAAEEIGLMGGKAYAEAHKAELPLHYIAAESDFGAGRIYQIDTKVNEGVFTKVQNILKPMTLNGVTLGSNQASAGPDISMLPAQGVPVASLRQDGRDYFDYHHTPNDTLDKIDPAALAQNVAAYAQFAYLMANSNIVLTPLASEIK | not soluble
MYLRKILELYRDSRFKYVVVDTPPTGLTLRILSLPRLYTFWLESLIGIRERIVSLRYVIARSIGREPEMDDPVLDKLREMQDRYAKLSNDLVERERTSFAIVATPEPLPVYEARKTVEFLESMGAKPSIIVVNRILPAEIASRLGVLEVQSKALNELRTRVCRKPCVLVEIPMVETVPSSLEAVLNLVERSR | not soluble
TNTDQSIKFTSKSNSINKNNQNKELALLRDNLMNEAKVDEPLSFEKRFENFKNKYSDIHSLNNSVFSLHDVYDLLGGFKQSLTTFFDEVIAQQQKIKDADKIFPSTKDNPPKEENPNVLDTLANYQGAGFFPSLGKNGFNLPEAVFQNFTDFRINDYKIKNFNVDLVSENDIIKHDKVRYAFEV | not soluble
MKVKNNAQLLMPREKMLKFGISALTDVELLALFLRTGTRGKDVLTLAKEMLENFGSLYGLLTSEYEQFSGVHGIGVAKFAQLKGIAELARRYYNVRMREESPLLSPEMTREFLQSQLTGEEREIFMVIFLDSQHRVITHSRLFSGTLNHVEVHPREIIREAIKINASALILAHNHPSGCAEPSKADKLITERIIKSCQFMDLRVLDHIVIGRGEYVSFAERGWI | not soluble
SLKYEDINENTIKITLSFDDLTDYDIKLSDFFGNQEVIEQFFYELVDELGLENRFGNVGMLTFQIQPFPQGVHMIVHEEAMLGEGGEIPDDPEEFEELMTGFYNKLNEIGADMARERGITDFKPGLGLPGTKKDEAEQEPDFIYYSIRYEDIMSVLTGIKNVKFADEESEFYRYDGNFYLVVLDNQKEKGKMHVESTRSRMMEYGEATKMSREFLQEYGECLIATRALDVLRKI | soluble
MTMTETMNVDLLLEMESVHVKPFTEHDKVILRSYEAVVDGIASLIGPFCEIVLHSLEDLNTSAIKIANGENTGRQVGSPITDMALKMLRDIEGSERNFSRSYFTRAKGGVLMKSITVAIRNGENRVIGLLCINVNLDAPFSQVLKSFMPTQEAQEAASSVNFASDVEELVDQTVERTIEEINGDKSVSNNTKNRQIVMALFDKGIFDIKDAINRVADRLNISKHTVYLYIRQRKTEDDEK | not soluble
MLTEEKEDYLKAILTNNGDKNFVTNKILSQFLNIKPPSVSEMVGRLEKAGYVETKPYKGVRLTEDGLTHTLDIIKRHRLLELFLIEILKYNWEEVHQEAEILEHRISDLFVERLDSLLNFPETCPHGGVIPRNNEYKEKYITTILNYEPGDIVTIKRVRDKTDLLIYLSSKDISIGNEVEIVSKDEMNKVIIIKRNDNVIIVSYENAMNMFAEK | not soluble
SYMYDRDGSLVSEIVSDHENRVLVPFNKIPEEVKQIFLTSEDRHFYEHKGFDFMGMVPPTASNVKDKKIDQGASTITQQLSRNLYLSHERSFSRKLTELAYSYQLEKKYTKNEILEAYLNTIYFNNGVYGVGSAAQFYFSKPLKSLTVGEMAFICAIPNNPTLYDPLKHF | not soluble
MSLLSGDETLTVYLARVLSCPELFRVSTPEEARRIAEKILSGEIEPPLEFFGLRRDAVNEVLAVTDGPAGENVAPVGLRVRGDSIVVNLYPGSRTYENFVRTEELTACIVPDPIRFLKALSKELAIETVGDGTKVAEGTRAYLELEAKEIHEGKPLTAELQVVGWGLLHPRPRALVRGESALLEALVELTRIHLDEDHVDACKRALEVVKRTIWSEEYQWAVEKVERELRGKEDGPDHQDTSPRIRRATGEGHHHHHH | soluble
MGSDKIHHHHHHETENVNCGQVLAGDTAYLKTVTGEYRIKIAENESLNMSCEAVMDRILSRDHVLRPLENGVAFARVVYMDYELIEKHVEMSYHPQNSFCFAIDKKAAKEFKERMQAMASCLPNVLLLPGRFFKNPIHDLSVDSHGHNTNLAHYNCLRALINKPGWNYAILLQNHDLITKSVYELEKIFNWLGGANDVAIRPELGRLDKKHFKWDPMSLKLFRNESEIDPVILNTTLKFAKGAVQSSLSRAAVDWMTRTVDLTTFIDQWNHGTYGVDEQFTQAFQISDFLGMPGHFTDKCIKKGIITEGITRFAQWTHGDQSKCASKKSRHGICIMGIEHLSMMAKSEHLMFNKVLPLFDYSIIECTAE | not soluble
MGSDKIHHHHHHMKIILGIPDLKIPVWTFKQPLMINQLNWDRPSWENETWVDSGGYQIMVRGIKVEIEKVVEKYKILDATQYMSLDIPSIPCHKPSELNYKYFEYLYTVFDKKIVPVIHAYDPESIKKSIDFYSQYTDLVAFGGIVPPTLNKSGNKKLAVAIYYLVRKLWKGKIHVLGAGSPFMRKVYFNADSVDTSTYRVKGIHGMVIIPGKGERYVGNRKIVWGTKRASEEELEILLSFLDKTHYPFQIRFDNWIDRSLINAWVLLNSEYESNNPLIRYSKKLDTFAEDEIEEEVNELCM | not soluble
MIPLPSGTKIWLVAGITDMRNGFNGLAAKVQTTLKDDPMSGHVFIFRGRNGSQVKLLWSTGDGLCLLTKRLERGRFAWPSARDGKVFLTPAQLAMLLEGIDWRQPKRLLTSLTML | not soluble
THGAQHANPVVSGSVSPRPAPAKEQPSVAPSQSSVPPQPSIGEQRRQPETTAPTITEDKPEQTKVVPPTRPMATSTVGSEGRFTLRGIRNKQEQLQNNIQEVRTEMTESFDEEQLQLAWIEFAETKLSEEIHLKETMANCLPKLRPGTSAFEVEVLNSRQEEEINNVSARLLSFLADKLCNTTIRMNVRVSESTSLNRVPVSLDEKIERLNQENPLFDELRMRLGLSLV | not soluble
MLEYKLIRSKRRKTLALQVKHGQVTVRAPHYVTSAFIDTFIQEKSAWLRSKLAEQQKTPEYCDFSQGSNLLYLGEKVILNICIAKKSEVYFSHLVIAEIEPKNYQEITTKQLNVAISEKIHSRLINPLAISKQIKKQLEVYFKQQAEQLFSERLERISKQISLCPTAINIRQYRARWGSCNNRGEVSFNYLLMMTPLTVIDYVIVHELCHLEHLNHSKEFWHLVEKFCPNYEIAKKWLNTYQSLEHHHHHH | soluble
MKCSWREGNKIQLLENGEQYYPAVFKAIGEAQERIILETFIWFEDNVGKQLHAALLAAAQRGVKAEVLLDGYGSPDLSDEFVNELTAAGVVFRYYDPRPRLFGMRTNVFRRMHRKIVVIDARIAFIGGLNYSAEHMSSYGPEAKQDYAVRLEGPIVEDILQFELENLPGQSAARRWWRRHHKAEENRQPGEAQVLLVWRDNEEHRDDIERHYLKMLTQAQREVIIANAYFFPGYRFLHALRKAARRGVRIKLIIQGEPDMPIVRVGARLLYNYLVKGGVQVFEYRRRPLHGKVALMDDHWATVGSSNLDPLSLSLNLEANVIIHDRHFNQTLRDNLNGIIAADCQQVDETMLPKRTWWNLTKSVLAFHFLRHFPALVGWLPAHTPRLTQVDPPAQPTMETQDRVETENTGVNP | not soluble
MSLGIPLSQLIVESPKPLSSGITGLDEILNLGFQARSIYEIFGPPGIGKTNFGIQLVCNSLEGIQQSEINDDKILWIETFQEMPINILRERFQKFKIVEENVKRVRITKFGQLLYFFQNLFKLSQSVRYKLVIIDGFSQLVCDHLCTLSKRGGGMIDKTIHELKCRHLILIFTVMTKYTHSTGSTIIVLNDCMNTAFQSNEFESLEEYYEILDDGSNFFVNSNNERRKNNVHILKSALVANIAMGSKDSTWEVFLRDRIGLFRDWNEQVDETVFVKSKRVKASSSQSNEGCTTIKEMRINKRNFENLRIAIVFNLHGEDRKREGRNLKRSRSSDDRNYIVKFDFDKATGQLRDIIDLKPDTANIASFPTLSTSSSSCSQVFNNIDSNDNPLPNAEGKEEIIYDSEG | not soluble
MAKVLVLYYSMYGHIETMARAVAEGASKVDGAEVVVKRVPETMPPQLFEKAGGKTQTAPVATPQELADYDAIIFGTPTRFGNMSGQMRTFLDQTGGLWASGALYGKLASVFSSTGTGGGQEQTITSTWTTLAHHGMVIVPIGYAAQELFDVSQVRGGTPYGATTIAGGDGSRQPSQEELSIARYQGEYVAGLAVKLNG | soluble
MAHHHHHHMDGGVVKTILRKGEGGEENAPKKGNEVTVHYVGKLESSGKVFDSSRERNVPFKFHLGQGEVIKGWDICVASMTKNEKCSVRLDSKYGYGEEGCGESIPGNSVLIFEIELISFREAKKSIYDYTNEEKIQAAFDLKEEGNDFFKKNEIDEAISKYKEALDLFIHAEDWDGDLAEKKKNIEIICNLNLSTCYNKSKDFPNAIAHASKVLKIEKNNVKALYKLGVANMHFGFLEVAKENLYKAASLSPNNVEIRNSYDACLSKLKEARKRDKLTFGGMFDKGI | not soluble
